In experiment [1] the target is dimerization domain (40 aa) of the Gal4 transcriptional activator protein (pBT-LGF2). Nature of the experiment: two-hybrid; bacterial two-hybrid (BacterioMatch, E. coli BM2H; bait pBT, target pTRG); minimum inhibitory concentration of carbenicillin (0-12.8 mg/mL), 0.1 mM IPTG, overnight at 30°C.
In experiment [2] the target is T1, N-His-tagged periplasmic domain of ExeD, purified (A. hydrophila, UniProt P31780 26-355).
T1 construct: periplasmic domain of ExeD, A. hydrophila, in NdeI/XhoI of pET30a; the printed primers carry no His codons and no stop codon, so the tag may be the vector's C-terminal one (my surmise); also called P-ExeD; N-His-tagged-P-ExeD; source: E. coli BL21, purified (Ni-NTA, Resource S ion exchange)
T1 sequence: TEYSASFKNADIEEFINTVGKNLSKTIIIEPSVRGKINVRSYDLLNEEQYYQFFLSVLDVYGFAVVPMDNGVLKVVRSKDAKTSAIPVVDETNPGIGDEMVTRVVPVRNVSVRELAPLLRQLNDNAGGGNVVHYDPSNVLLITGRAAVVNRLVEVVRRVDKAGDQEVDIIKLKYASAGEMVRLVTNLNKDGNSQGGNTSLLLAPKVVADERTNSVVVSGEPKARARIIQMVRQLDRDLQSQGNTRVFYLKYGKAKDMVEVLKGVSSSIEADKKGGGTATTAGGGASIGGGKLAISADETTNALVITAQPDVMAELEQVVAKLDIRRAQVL
The experiment in a line: fluorescence polarisation; steady state rotational anisotropy; F-labeled P-ExeB 50 nM, titration of P-ExeD 0-4000 nM, RT buffer, 21°C; apparent Kd from a rectangular hyperbola. The following applies: both partners purified.

For experiment [3], the target named is T2, periplasmic domain of ExeB (bacterial two-hybrid fusion) (A. hydrophila, UniProt P45755 58-226).
T2 construct: periplasmic domain of ExeB, A. hydrophila, amplified from pGAD424-P-ExeB; Stood in pBT and in pTRG; also called P-ExeB; source: bacterial two-hybrid fusion (E. coli BM2H)
T2 sequence: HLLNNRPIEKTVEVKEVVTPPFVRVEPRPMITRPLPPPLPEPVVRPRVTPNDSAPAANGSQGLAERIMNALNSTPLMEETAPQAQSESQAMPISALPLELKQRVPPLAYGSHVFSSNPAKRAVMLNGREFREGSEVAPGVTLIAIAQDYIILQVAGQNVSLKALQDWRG
The experiment in a line: two-hybrid; bacterial two-hybrid (BacterioMatch, E. coli BM2H; bait pBT, target pTRG); β-galactosidase activity of permeabilized cells, 0.02 mM IPTG. The following applies: partners not purified.

Bounds are passed on as bounds.

With “domain (90aa) of the mutant form of the Gal11 protein (pTRG-Gal11P) (domain or fragment)”, in experiment [1], the MIC of carbenicillin is 12.8 mg/mL.

B1: fluorescein-EX labeled N-His-tagged periplasmic domain of ExeB (domain or fragment)
chain: T2 sequence
modifications: fluorescein (Fluorescein-EX Protein Labeling kit), ~0.8 moles of dye per mole of protein
notes: periplasmic domain of ExeB, A. hydrophila, in pET30a; Same construct as m27, purified and labelled; also called F-labeled P-ExeB; fluorescein-EX labeled P-ExeB; source: E. coli BL21, purified (Ni-NTA, Resource S ion exchange)
Consider B1, for which, in experiment [2], the Kd was found to be 1190 ± 160 nM.

B2: periplasmic domain of ExeD (bacterial two-hybrid fusion) (domain or fragment)
chain: T1 sequence
notes: periplasmic domain of ExeD, A. hydrophila, amplified from pGAD424-P-ExeD; Stood in pTRG and in pBT; also called P-ExeD; full-length P-ExeD; source: bacterial two-hybrid fusion (E. coli BM2H)
As for B2, the “fold β-galactosidase activity over cells with the empty vectors” value in experiment [3] is more than 11 fold.

The record behind these values is paper PMC4098917, “Assembly of the Type Two Secretion System in Aeromonas hydrophila Involves Direct Interaction between the Periplasmic Domains of the Assembly Factor ExeB and the Secretin ExeD” (PLoS ONE, 2014).
